Results from article doi:10.1101/2020.05.09.085852 (bioRxiv, 2020).

Target: the molecule itself
Assay: crystal structure

B1: YukC413.strep (domain or fragment, B. subtilis 168, UniProt P71070 1-413, looked up)
chain: MSGEQKSYLENQLEAVAEKTDAGYTFTFQREKIKLLDGLEANVIKDINPFFHKEIDVTDDEVIITIQPPSSYKAFRFMKAKDKKSKWQFAYQLVQAVQQHNLSRLNLIVAPENIVFDKGLTPYFLHYGVKESIPPYERDEERVWQELKAAAALAVDGAFAFEDYLKFNETLTFSAEAKAILDAESYDDLLELIQTHIDELEAKAKTYIHIPRKKWNIQRYIGLGLIVLLVPALIYSMYALFFAQPKHQAIVDSNRAFLNKQYSEVISTLSKYDAESLPESVQYQLATSYVEVENLGSAKTKNIENNLVTLQSDPQHFLYWIDYGRGEYKEAISIGRKLEYNDYIYFALAKYKQQLLSEDTNDEDIQKELDSVNSELEKAQKERQENKQSNSETSLVDTSEEQTQTDEEKQAEE
stoichiometry N: 2
